This is an account of results in US9228009B2, “Multi-hierarchical self-assembly of a collagen mimetic peptide” (WILLIAM MARSH RICE UNIVERSITY, priority 2011, dated 2016).

The subject of this data set is collagenase type IV. The data set is described as follows: Collagenase degradation study of hydrogels. The data set is classed as in vitro ADME. The note with it: for hydrogel degradation state: w/ collagenase, 3.0% by weight gel. On the procedure: As a simple functional test of the collagen hydrogel mimetic, we compared its ability to be broken down by collagenase (type IV, Invitrogen) the primary component of which is MMP2, a protease known to specifically cleave between the X and Gly residues of an X-Y-Gly repeat found in a triple helix.^42 (Pro-Lys-Gly)4(Pro-Hyp-Gly)4(Asp-Hyp-Gly)4 hydrogels were prepared at a concentration of 2.0% by weight in phosphate buffer and treated with either collagenase in HBSS (Hank's Balanced Salt Solution) or HBSS alone. The samples were allowed to incubate at room temperature (approximately 20° C.), 30° C. and 37° C. Hydrogels of rat-tail collagen were prepared in the same fashion with and without collagenase.
Using the previously described gelation procedure, gels of (Pro-Lys-Gly)4(Pro-Hyp-Gly)4(Asp-Hyp-Gly)4 were prepared at a concentration of 2.0% by weight in 10 mM phosphate buffer. Directly after annealing, 100 μl of solution was pipetted into two wells of a 96-well cell culture plate and allowed to incubate at room temperature overnight. A 0.3% by weight collagenase type IV solution was prepared by dissolving 15.0 mg of non-sterile lyophilized enzyme into 5 ml of Hank's Balanced Salt Solution (HBSS). The solution was then filter sterilized using a 0.2 μm filter attached to a syringe. Enzyme and buffer were from Invitrogen (Carlsbad, Calif.). After gelation was complete, 150 μl of collagenase was added on top of one well and 150 μL of HBSS was added on the other serving as a control. Three plates were prepared and incubated at room temperature (about 20° C.), 30° C. and 37° C. Each condition was observed and imaged at 0, 1, 4, 6, 12, 24 and 48 hours after addition of the collagenase or HBSS. Plates containing rat-tail collagen gels at a concentration of 3.0% by weight were prepared and analyzed in an identical manner. Table 1 and Table 2 below show collagenase mediated degradation of (Pro-Lys-Gly)4(Pro-Hyp-Gly)4(Asp-Hyp-Gly)4 and rat-tail collagen hydrogels, respectively. Samples were tested at room temperature (approximately 20° C., 30° C. and 37° C.) with and without collagenase. […] Control samples of (Pro-Lys-Gly)4(Pro-Hyp-Gly)4(Asp-Hyp-Gly)4 at room temperature and 30° C. were intact after 48 hours. However at 37° C. the hydrogels dissolved after 24 hours due to the proximity of this temperature to the triple helices melting temperature.

For the substance “Rat-tail Collagen: collagen type I harvested from rat-tail tendon; hydrogels at 3.0% by weight used as comparator [reference compound]”, the “time after which hydrogel treated with collagenase was fully dissolved” value (shortened to “time after which hydrogel treated”) (30° C.) worked out at 4 h, the “time after which hydrogel treated” value (37° C.) was 1 h and the “time after which hydrogel treated” value (room temperature (approximately 20° C.)) stood at 4 h. For the same substance, the hydrogel degradation state entry runs as follows: (20° C., 0 h) “intact”; (20° C., 1 h) “intact”; (20° C., 4 h) “dissolved”; (20° C., 6 h) “dissolved”; (20° C., 12 h) “dissolved”; (20° C., 24 h) “dissolved”. Moreover, the hydrogel degradation state entry is listed as “dissolved” (20° C., 48 h); “intact” (30° C., 0 h); “intact” (30° C., 1 h); “dissolved” (30° C., 4 h); “dissolved” (30° C., 6 h); “dissolved” (30° C., 12 h). Besides, the hydrogel degradation state entry reads like this: (30° C., 24 h) “dissolved”; (30° C., 48 h) “dissolved”; (37° C., 0 h) “intact”; (37° C., 1 h) “dissolved”; (37° C., 4 h) “dissolved”; (37° C., 6 h) “dissolved”. Moreover, the hydrogel degradation state entry is listed as “dissolved” (37° C., 12 h); “dissolved” (37° C., 24 h); “dissolved” (37° C., 48 h).
